Reference: the supplement of paper PMC12042874
± gives the uncertainty stated by the source.

Assay: amyloid nucleation score (Sup35N fusion, yeast selection) (log enrichment); library NNK3; higher = more nucleation; inactive = no reads after selection
Procedure, shortened: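 The nucleation score is the log enrichment of output over input reads, calculated with DiMSum and centred on the mode score of non-aggregating sequences. Sequences with under 100 input reads were excluded. Reads came from Illumina sequencing of plasmid inserts from psi-negative yeast expressing Sup35N fused to peptides of 20 random codons, induced 24 hours with 100 μM copper sulfate and grown 7 days at 30°C without adenine and uracil.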

Amyloid nucleation score, -1.06 ± 1.3:
KFGFCDIMKGLFRRMLGLKV

Amyloid nucleation score, -0.515 ± 1.1:
KLDTVYRPSMRACVCNREFV

Amyloid nucleation score, -0.79 ± 1.4:
KPLMWESSDNPEGWQLSLLG

Amyloid nucleation score, -0.639 ± 0.87:
KTLTKSNIWIG

Amyloid nucleation score, 2.07 ± 0.076:
KFLISFRRSY

Amyloid nucleation score, 0.966 ± 0.12:
KSCLCLSPRGFGTDSAAVKW

Amyloid nucleation score, 0.565 ± 0.14:
KQFRVWFCYFL

Amyloid nucleation score, 0.094 ± 0.41:
KIVLDRARDWQL

Amyloid nucleation score, 1.15 ± 0.1:
KRPWTVFFVFFIGFATLL

Amyloid nucleation score, 0.914 ± 0.13:
LCVVEIFTLIGSCCHSDLGW

Amyloid nucleation score, 0.015 ± 0.64:
KMMARTSNVVEVLCWRTDVA

Amyloid nucleation score, -0.443 ± 1:
KWSLFLYRHGWCRLAGTLLV

Amyloid nucleation score, 1.57 ± 0.079:
LCFRLDVSRMCTVSGNIGYC

Amyloid nucleation score, inactive:
KCDDIGCLGQAT, KCKFNWVCEVVR, KCLGFHKHGALFTAYWGQTS, KCLLGLSLVRAKRSKLWMW, KCMFSIFSGAASVLLKMFMV, KCSFTVNYRRRYSLYC, KDCQKNGWLSSTNLELLQCP, KDFGRLLLN, KDGFYNVPLVEPHMRSSSTP, KDLCPFARPASRLHRVACME, KDLQR, KDQSRSARSST, KDVSPVCNVPMSGWWTTAFL, KDYLLSSYCEECHDHSSSEL, KEGDFPLSSSRYSYTNYLVI, KENFASVCCGCYPMQPPGIM, KFARV, KFFCW, KFGSLVKTYFRDMFRSILCW, KFIGFYVWVYVCHCVVIRAY, KFLYRCINRLANSLIRELPI, KFRKTRSKR, KFYLILVA, KGCNETWFVNPRGRYCWEFC, KGDCQWVVPYVIHSNHVRAG, KGLYV, KGTPGLDFTAADPGVIAL, KIHCAESATVVLWVRVGDCR, KISAIVSYPAYVIIVHRLWH, KITIKFYRCTS, KKLHALESCA, KKMLEKKI, KKRGHEWFVIIKSARGASKR, KKYVETVSS, KLCTVSNRSVMPGIT, KLCYTASEWSGNSLNVVRNK, KLFYQMILYRNG, KLLLYFKYLMPVELISWSTL, KLLRQNSY, KLNFVGLVLRNVGSWEGHGC, KLSDDRKTRCNYYFMGLVVV, KLTGQDLVVGNAFATVVYVE, KLVWRERICEDGFYIKTTFL, KMCLLFVREFRMLFACVWVT, KMQISTKVCDMDLFCPKTIP, KMSAPWEGQCECCGCDF, KMSNGDTNDANVFIVRDSWL, KNGFRNVRKQRGAQKE, KNNGTSKGVCRLQIMLFGLA, KPCHLYMTAEDTYVWMSVGL, KPDVY, KPLVV, KPPQNILVDMRLEGSMC, KPWIFMESRDM, KQVNQSRLMISGGNCRGRAN, KQVNSCDFLMWMLLALHFKG, KRCWLWWIKVCTKMLLEVSS, KRDHMVSLGYSLGSKQRGVG, KRFHWFGVGVDAVMRFGV, KRKRVK, KRLFIILIWKFCTGLCFL, KRVCCCKNSSSCE, KRVKWNCRGLDDSMLFFWVV, KRVSTDAW, KRYCSLMML, KRYVCSTVTMLNCQVR, KSALTRPDARPVRYRQPTHS, KSAREFGAHFMSTITVACTR, KSGTGSNWFWKGGLSGTKKH, KSLTAYSLFVASYLSSFEWG, KSLTDHVNRSFLMVGVWMVK, KSSWAIKSSNGTW, KSWGLVHKCSSAFMFPKFCP, KTHTPTVQMEL, KTIFFMKGLVMSDDICSDRR, KVFNTL, KVNGYSLMLLDPVGGLTNT, KVSCEYSNNKWF, KVWCKMLISSFIWMYVSE, KVWSLYLYVRSTYRL, KWAWVGISCPRYRSRLGYFS, KWFAATVLSNKPREEKRMVT, KWIVQAILSSEL, KWMGKNTKSG, KWVCYHSWDYTCYHGEWYPS, KYCGQLQFRCIELEGGIKRE, KYCYIEWN, KYDCRGEMLFQ, KYDSY, KYHLGECVLSPLAPKIHWEI, KYIIWLLDDSDLI, KYKAWMVCHTHWSTVKVKRL, KYNFNYPEITLAPTYYMSIT, KYTNTACLSRASIGNMIGQF, KYYYVLGMQMYRHLYWTACV, LAALLKASWVSHVVSWNKRT, LAAMWPFV, LAASLSGIYCPSLAWRGLKE, LACSMLCVDPIADGHNFSYS, LADNIRFISN, LAIILLFAVRLCRDANGDAM, LAITNIEWSLFIQWTLI, LARHSCSSNVYGNLQRTFFG, LASGRHQASVHCRVNSMMYS, LAYWPSNGCVP, LCCTRTSHIMSRVARMAFRV, LCDGCKNMFLLPLY, LCFAVSDCFNYKVLPILMGA, LCGCS, LCHSSRGDIH, LCKQTSTTNLSGV, LCPIAMCCSG, LCPVMLDRRSARSKGPALIL, LCRFNLYYWLVFELACSRWN, LCRLPLDQTSKPIVTTYAGR, LCRRLQTGMAYHMVSSYFNW, LCSHLEVDSL, LCSRRSGMVRIWIVSSARLY, LCVIWIVSHRRDCMAFCEQQ, LCYCLKAVDYRLNFFHKWRH, LDAWRWMSLTADYGKSLVTR, LDDRQSVCGTAYKVMTDIS, LDFANCFLVQCL, LDGGMNNRR, LDHRGIRFFN, LDKVSNSCTPIWPFVIET, LDLNVIDRGWTPGTGTVQRM, LDNVR, LDQTSRIVYVFTCSYWLDKV, LDSADTNDHPFSWYNGMLGT, LDSGISNHPNFIFTHTEFIN, LDTVTCNSLETAFGSFKNWL

Amyloid nucleation score, -0.123 ± 0.51:
KTRERGLSTGDGTQNEIAGY

Amyloid nucleation score, -0.443 ± 1.4:
KVLMST

Amyloid nucleation score, 2.68 ± 0.053:
KNQMVFVINY

Amyloid nucleation score, 1.11 ± 0.14:
KSFLLPCFCRTLWTWMHRHA

Amyloid nucleation score, 0.753 ± 0.12:
KLMEICYRVRIRRMECQVNW

Amyloid nucleation score, 0.499 ± 0.13:
LDILVRETDQSLWDFQLSSV

Amyloid nucleation score, -0.265 ± 0.39:
LAMPTLLQASVTNLVGDSIV

Amyloid nucleation score, -0.415 ± 0.96:
LCFMRHSLRGWG

Amyloid nucleation score, 1.3 ± 0.1:
LASSQLIYRTSRTCPTLLPL

Amyloid nucleation score, 1.69 ± 0.12:
KMFSLWFQ

Amyloid nucleation score, 2.71 ± 0.053:
LCVSLNCPQFSFYSLQNQPY

Amyloid nucleation score, 2.42 ± 0.069:
KQPCCNVFCC

Amyloid nucleation score, -0.106 ± 0.93:
KCSTMGWRWYMSS

Amyloid nucleation score, 2.28 ± 0.065:
KYFIINYSVSSNGRKAHYCQ

Amyloid nucleation score, 1.89 ± 0.055:
LACSSSCILSPVVGIGFSWN
